Results on one molecule are retold here after patent US20040229309A1 (KUMAMOTO TECHNOLOGY AND INDUSTRY FOUNDATION, published 2004).

The test deals with T1, mouse GANP protein (mouse, UniProt Q9WUU9 1-1971).
T1 construct: Endogenous 210-kD protein in lysates, cytoplasmic and nuclear fractions of WEHI-231 cells and in mouse spleen B cells; The deduced polypeptide has 1971 amino acids; It is phosphorylated at serine/threonine in the in vitro kinase reactions; also called GANP antigen; 29-15 Ag
Nature of the test: co-immunoprecipitation from WEHI-231 lysate, Western blot with anti-MCM3; in vitro kinase assay and V8 cleavage mapping. A general note: Immunoblotting shows a protein as a band on a membrane.

T1 sequence (Q9WUU9 other isoform, or with tags, fused parts or gaps limits assumed): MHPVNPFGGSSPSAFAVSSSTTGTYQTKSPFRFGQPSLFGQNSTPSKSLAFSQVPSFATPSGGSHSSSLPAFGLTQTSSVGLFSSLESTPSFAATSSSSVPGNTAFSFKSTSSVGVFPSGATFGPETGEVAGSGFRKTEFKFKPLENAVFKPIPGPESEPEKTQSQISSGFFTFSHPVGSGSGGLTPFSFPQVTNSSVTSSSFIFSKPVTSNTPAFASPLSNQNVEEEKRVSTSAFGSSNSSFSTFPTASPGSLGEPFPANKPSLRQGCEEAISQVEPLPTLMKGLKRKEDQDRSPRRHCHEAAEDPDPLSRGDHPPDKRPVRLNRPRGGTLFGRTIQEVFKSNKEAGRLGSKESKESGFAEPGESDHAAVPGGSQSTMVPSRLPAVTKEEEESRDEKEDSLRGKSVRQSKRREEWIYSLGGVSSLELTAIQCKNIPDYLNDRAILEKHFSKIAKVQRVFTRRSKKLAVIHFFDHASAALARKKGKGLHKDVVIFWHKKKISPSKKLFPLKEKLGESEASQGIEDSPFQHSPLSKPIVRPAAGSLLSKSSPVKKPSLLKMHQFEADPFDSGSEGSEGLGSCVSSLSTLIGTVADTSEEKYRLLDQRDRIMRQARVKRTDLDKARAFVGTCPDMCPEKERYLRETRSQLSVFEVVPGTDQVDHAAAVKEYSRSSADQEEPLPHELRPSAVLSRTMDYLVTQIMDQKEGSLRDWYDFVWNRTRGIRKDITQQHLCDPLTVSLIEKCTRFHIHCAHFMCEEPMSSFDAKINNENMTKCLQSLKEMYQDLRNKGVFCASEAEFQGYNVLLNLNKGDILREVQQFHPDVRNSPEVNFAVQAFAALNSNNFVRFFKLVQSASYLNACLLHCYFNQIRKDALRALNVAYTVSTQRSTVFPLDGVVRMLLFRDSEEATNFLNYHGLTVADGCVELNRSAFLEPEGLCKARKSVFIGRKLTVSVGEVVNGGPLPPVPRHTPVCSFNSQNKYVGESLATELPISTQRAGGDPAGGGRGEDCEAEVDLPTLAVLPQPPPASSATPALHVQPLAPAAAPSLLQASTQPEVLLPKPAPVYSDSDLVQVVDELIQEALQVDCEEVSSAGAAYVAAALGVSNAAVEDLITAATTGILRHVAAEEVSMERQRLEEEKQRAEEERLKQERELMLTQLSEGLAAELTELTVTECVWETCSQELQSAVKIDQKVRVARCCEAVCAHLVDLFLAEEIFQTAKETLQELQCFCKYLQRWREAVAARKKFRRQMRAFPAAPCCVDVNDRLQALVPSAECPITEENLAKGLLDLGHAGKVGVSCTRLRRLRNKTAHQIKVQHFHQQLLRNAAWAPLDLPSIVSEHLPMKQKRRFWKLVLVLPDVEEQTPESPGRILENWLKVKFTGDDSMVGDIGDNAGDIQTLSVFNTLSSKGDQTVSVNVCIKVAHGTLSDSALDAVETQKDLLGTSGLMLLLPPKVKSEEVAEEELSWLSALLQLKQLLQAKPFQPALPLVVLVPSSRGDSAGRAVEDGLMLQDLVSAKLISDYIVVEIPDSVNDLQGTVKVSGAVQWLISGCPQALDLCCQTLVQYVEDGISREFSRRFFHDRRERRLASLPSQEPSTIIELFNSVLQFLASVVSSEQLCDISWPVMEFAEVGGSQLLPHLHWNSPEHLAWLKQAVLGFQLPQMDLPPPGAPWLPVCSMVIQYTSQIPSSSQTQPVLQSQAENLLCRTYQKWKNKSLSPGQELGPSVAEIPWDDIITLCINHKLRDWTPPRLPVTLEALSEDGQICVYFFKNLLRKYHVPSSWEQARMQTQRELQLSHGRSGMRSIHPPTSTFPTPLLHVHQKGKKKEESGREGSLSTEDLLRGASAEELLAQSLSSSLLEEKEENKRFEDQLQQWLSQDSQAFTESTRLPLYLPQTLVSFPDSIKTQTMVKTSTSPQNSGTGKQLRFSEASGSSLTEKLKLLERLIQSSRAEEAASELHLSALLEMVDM

B1: MCM3 protein (other, mouse, UniProt P25206 2-812, looked up)
chain: AGTVVLDDVELREAQRDYLDFLDDEEDQGIYQNKVRELISDNQYRLIVSVNDLRRKNEKRANRLLNNAFEELVAFQRALKDFVASIDATYAKQYEEFYIGLEGSFGSKHVSPRTLTSCFLSCVVCVEGIVTKCSLVRPKVVRSVHYCPATKKTIERRYSDLTTLVAFPSSSVYPTKDEENNPLETEYGLSVYKDHQTITIQEMPEKAPAGQLPRSVDVILDDDLVDKVKPGDRIQVVGTYRCLPGKKGCYTSGTFRTVLIACNVKQMSKDIQPAFSADDIAKIKKFSKTRSKDVFEQLARSLAPSIHGHDYVKKAILCLLLGGVERELENGSHIRGDINILLIGDPSVAKSQLLRYVLCTAPRAIPTTGRGSSGVGLTAAVTTDQETGERRLEAGAMVLADRGVVCIDEFDKMSDMDRTAIHEVMEQGRVTIAKAGIHARLNARCSVLAAANPVYGRYDQYKTPMENIGLQDSLLSRFDLLFIMLDQMDPEQDREISDHVLRMHQYRAPGEQDGDALPLGSSVDILATDDPDFTQDDQQDTRIYEKHDSLLHGTKKKKEKMVSAAFMKKYIHVAKIIKPTLTQESAAYIAEEYSRLRSQDSMSSDTARTSPVTARTLETLIRLATAHAKARMSKTVDLQDAEEAVELVQYAYFKKVLEKEKKRKKASEDESDLEDEEEKSQEDTEQKRKRRKTHAKDGESYDPYDFSEAETQMPQVHTPKTDDSQEKTDDSQETQDSQKVELSEPRLKAFKAALLEVFQEAHEQSVGMLHLTESINRNREEPFSSEEIQACLSRMQDDNQVMVSEGIVFLI
notes: also called MCM3/P1
Consider B1, for which the binding result is on record as “binds”.
